Data: the RNAGym collection of RNA variant scans (doi:10.1093/molbev/msab373)

B1: Azoarcus group I ribozyme (parent)
chain: GUGCCUUGCGCCGGGAAACCACGCAAGGGAUGGUGUCAAAUUCGGCGAAACCUAAGCGCCCGCCCGGGCGUAUGGCAACGCCGAGCCAAGCUUCGGCGCCUGCGCCGAUGAAGGUGUAGAGACUAGACGGCACCCACCUAAGGCAAACGCUAUGGUGAAGGCAUAGUCCAGGGAGUGGCGAAAGUCACACAAACCGG

Variants of: B1
Experiment: reverse-splicing fitness (ratio to wild type); higher = more active; in vitro selection; Mg2+ level not given
Summary of the method: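 An in vitro group I ribozyme library with randomized positions was T7-transcribed and gel-purified. In triplicate, 10 pmol RNA in EPPS pH 7.5 was reacted with 50 pmoles of a 30-nt RNA substrate for 1 h at 37 °C across several added MgCl2 levels (1–48 mM), then stopped with EDTA. Products were reverse transcribed from a substrate-complementary primer, PCR-amplified and sequenced (HiSeq 4000). Fitness is a variant's read proportion after selection over that before, normalised to wild type.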

Variant | reverse-splicing fitness
C82A A111U A120U A145C | 0.0205
C82A A111U A120G A145C C169A U176G | 0.0048
C82A A111U A120G A145C C169A U176C | 0.00818
C82A A111U A120G A145C C169A U176A | 0.0141
C82A A111U A120G A145U C150A C169G U176A | 0.0146
C82A A111U A120G A145U C150A C169G U176G | 0.00492
C82A A111U A120G A145U C150A C169G U176C | 0.0161
C82A A111U A120G A145U C169G U176C | 0.014
C82A A111U A120G A145U C169G U176A | 0.0119
C82A A111U A120G A145U C169G U176G | 0.00437
C82A A111U A120G A145U C150G C169A U176C | 0.00995
C82A A111U A120G A145U C150G C169A U176G | 0.00552
C82A A111U A120G A145U C150G C169A U176A | 0.0086
C82A A111U A120G A145C U176A | 0.0112
C82A A111U A120G A145C U176G | 0.00543
C82A A111U A120G A145C U176C | 0.012
C82A A111U A120G A145C C169U | 0.00838
C82A A111U A120G A145C C169G | 0.0105
C82A A111U A120G A145C C169A | 0.0074
C82A A111U A120G A145G C150G C169U U176C | 0.013
C82A A111U A120G A145G C150G C169U U176G | 0.00707

Variant | reverse-splicing fitness
C82A A111U A120G A145G C150G C169U U176A | 0.0121
C82A A111U A120G A145U C150G U176G | 0.00424
C82A A111U A120G A145U C150G U176A | 0.00602
C82A A111U A120G A145U C150G U176C | 0.00834
C82A A111U A120C C150G C169G U176A | 0.00746
C82A A111U A120C C150G C169G U176C | 0.00529
C82A A111U A120C C150G C169G U176G | 0.00574
C82A A111U A120G C150U C169A U176G | 0.00525
C82A A111U A120G C150U C169A U176C | 0.0163
C82A A111U A120G C150U C169A U176A | 0.0156
C82A A111U A120G A145G C150A U176C | 0.0209
C82A A111U A120G A145G C150A U176G | 0.00816
C82A A111U A120G A145G C150A U176A | 0.0111
C82A A111U A120G C150U C169U U176C | 0.0177
C82A A111U A120G C150U C169U U176G | 0.00708
C82A A111U A120G C150U C169U U176A | 0.0197
C82A A111U A120G A145C C150U C169U U176G | 0.00596
C82A A111U A120G A145C C150U C169U U176A | 0.0202
C82A A111U A120G A145C C150U C169U U176C | 0.0127
C82A A111U A120C C150A C169G U176C | 0.0312
C82A A111U A120C C150A C169G U176A | 0.0199

Variant | reverse-splicing fitness
C82A A111U A120C C150A C169G U176G | 0.00775
C82A A111U A120G C169A U176A | 0.0188
C82A A111U A120G C169A U176G | 0.00506
C82A A111U A120G C169A U176C | 0.0218
C82A A111U A120G A145U C150G C169G U176A | 0.00656
C82A A111U A120G A145U C150G C169G U176C | 0.00476
C82A A111U A120G A145U C150G C169G U176G | 0.00488
C82A A111U A120G C150G C169G U176C | 0.0044
C82A A111U A120G C150G C169G U176G | 0.00446
C82A A111U A120G C150G C169G U176A | 0.00798
C82A A111U A120G A145U C150U C169G | 0.0104
C82A A111U A120G A145U C150U C169U | 0.00891
C82A A111U A120G A145U C150U C169A | 0.0101
C82A A111U A120U A145C C150A C169A U176C | 0.00299
C82A A111U A120U A145C C150A C169A U176A | 0.00272
C82A A111U A120U A145C C150A C169A U176G | 0.00263
C82A A111U A120G A145G C150U C169G U176G | 0.00517
C82A A111U A120G A145G C150U C169G U176A | 0.0133
C82A A111U A120G A145G C150U C169G U176C | 0.0178
C82A A111U A120G A145C C150G C169U U176G | 0.00584
C82A A111U A120G A145C C150G C169U U176C | 0.0117

Variant | reverse-splicing fitness
C82A A111U A120G A145C C150G C169U U176A | 0.0132
C82A A111U A120C C150U U176C | 0.022
C82A A111U A120C C150U U176G | 0.00805
C82A A111U A120C C150U U176A | 0.0125
C82A A111U A120G A145U C169A U176C | 0.0107
C82A A111U A120G A145U C169A U176G | 0.00477
C82A A111U A120G A145U C169A U176A | 0.012
C82A A111U A120C C150G | 0.00909
C82A A111U A120C C150U | 0.0206
C82A A111U A120C C150G C169A U176C | 0.0122
C82A A111U A120C C150G C169A U176A | 0.0125
C82A A111U A120C C150G C169A U176G | 0.00717
C82A A111U A120G C150U | 0.0133
C82A A111U A120G C150A | 0.0106
C82A A111U A120G C150G | 0.00697
C82A A111U A120G A145C C169U U176C | 0.0136
C82A A111U A120G A145C C169U U176A | 0.0212
C82A A111U A120G A145C C169U U176G | 0.00478
C82A A111U A120G A145C | 0.0126
C82A A111U A120G A145U | 0.0153
C82A A111U A120G A145G | 0.0152
